This assay concerns the target FN3 monobody 2C12 (binder of MAP2K5), purified FLAG-tagged protein. Kind of assay: pull-down; 1 pmol each of four purified biotinylated targets spiked into HeLa cell lysate (10 µg), 10 pmol purified FLAG-tagged monobody, 2 h 4 °C; captured on anti-FLAG magnetic beads, RIPA washes; blot probed with streptavidin-IR dye.

B1: mitogen-activated protein kinase kinase 5 (MAP2K5), amino acids 5-108 (domain or fragment)
chain: ALGPFPAMENQVLVIRIKIPNSGAVDWTVHSGPQLLFRDVLDVIGQVLPEATTTAFEYEDEDGDRITVRSDEEMKAMLSYYYSTVMEQQVNGQLIEPLQIFPRA
modifications: biotin (Avitag, in vivo); a non-biotinylated form served as soluble competitor
B1: the percent of input pulled down came out at 33%.

The record behind these values is PMC4632715.
